# Experimental data reported in paper PMC3817407.
# “And” between values parts separate entries of the source, which are not always exact repeats. Identical values can stand only once.
# T1: ECF01_3473
# T1 chain: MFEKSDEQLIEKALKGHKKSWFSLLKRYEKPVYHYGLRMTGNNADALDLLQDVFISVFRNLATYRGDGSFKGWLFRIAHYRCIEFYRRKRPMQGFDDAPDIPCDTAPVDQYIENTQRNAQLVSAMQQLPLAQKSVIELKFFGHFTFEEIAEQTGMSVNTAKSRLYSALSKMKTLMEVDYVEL
# T2: ECF04_1609
# T2 chain: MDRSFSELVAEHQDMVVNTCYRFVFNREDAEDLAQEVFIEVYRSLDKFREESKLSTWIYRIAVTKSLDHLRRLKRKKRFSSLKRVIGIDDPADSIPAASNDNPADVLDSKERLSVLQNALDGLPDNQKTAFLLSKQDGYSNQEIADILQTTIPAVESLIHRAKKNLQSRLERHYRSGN
# T3: ECF11_3726
# T3 chain: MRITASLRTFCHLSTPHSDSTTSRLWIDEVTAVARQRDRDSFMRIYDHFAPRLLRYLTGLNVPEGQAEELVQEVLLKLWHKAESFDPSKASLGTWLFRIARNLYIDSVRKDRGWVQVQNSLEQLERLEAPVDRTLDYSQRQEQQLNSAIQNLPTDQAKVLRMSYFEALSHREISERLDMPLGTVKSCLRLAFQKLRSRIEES
# T4: ECF12_807
# T4 chain: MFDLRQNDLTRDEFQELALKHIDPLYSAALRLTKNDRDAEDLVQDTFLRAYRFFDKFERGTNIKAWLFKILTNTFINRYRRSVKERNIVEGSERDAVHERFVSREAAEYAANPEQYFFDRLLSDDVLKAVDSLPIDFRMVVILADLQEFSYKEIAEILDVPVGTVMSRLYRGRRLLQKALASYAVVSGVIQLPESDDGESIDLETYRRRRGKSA
# T5: ECF15_436
# T5 chain: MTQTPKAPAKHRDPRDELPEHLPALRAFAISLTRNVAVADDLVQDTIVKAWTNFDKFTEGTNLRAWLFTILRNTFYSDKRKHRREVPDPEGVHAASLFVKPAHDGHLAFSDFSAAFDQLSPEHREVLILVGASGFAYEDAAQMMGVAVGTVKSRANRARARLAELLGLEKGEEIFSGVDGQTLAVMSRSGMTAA
# T6: ECF15_524
# T6 chain: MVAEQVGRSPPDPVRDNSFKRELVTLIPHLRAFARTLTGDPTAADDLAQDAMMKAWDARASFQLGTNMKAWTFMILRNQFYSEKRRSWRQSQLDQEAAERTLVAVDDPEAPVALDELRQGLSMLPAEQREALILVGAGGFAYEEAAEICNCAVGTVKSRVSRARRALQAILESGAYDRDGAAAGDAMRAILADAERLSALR
# T7: ECF16_3622
# T7 chain: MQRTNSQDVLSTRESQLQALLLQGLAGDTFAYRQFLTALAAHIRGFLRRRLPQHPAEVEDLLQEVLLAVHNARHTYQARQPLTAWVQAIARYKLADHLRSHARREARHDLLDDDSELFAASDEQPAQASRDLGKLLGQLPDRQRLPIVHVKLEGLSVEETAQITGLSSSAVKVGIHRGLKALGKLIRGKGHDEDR
# T8: ECF16_973
# T8 chain: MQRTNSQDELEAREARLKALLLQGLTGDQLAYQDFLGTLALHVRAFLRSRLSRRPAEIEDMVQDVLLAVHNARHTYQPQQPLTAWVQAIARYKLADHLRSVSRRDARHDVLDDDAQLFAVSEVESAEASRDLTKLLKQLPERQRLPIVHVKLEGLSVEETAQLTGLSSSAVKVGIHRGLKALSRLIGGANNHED
# T9: ECF17_1691
# T9 chain: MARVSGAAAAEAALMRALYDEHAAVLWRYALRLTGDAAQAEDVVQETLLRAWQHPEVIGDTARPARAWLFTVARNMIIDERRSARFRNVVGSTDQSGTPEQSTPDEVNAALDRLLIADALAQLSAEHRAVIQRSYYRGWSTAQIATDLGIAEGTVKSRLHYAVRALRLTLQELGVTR
# T10: ECF22_1147
# T10 chain: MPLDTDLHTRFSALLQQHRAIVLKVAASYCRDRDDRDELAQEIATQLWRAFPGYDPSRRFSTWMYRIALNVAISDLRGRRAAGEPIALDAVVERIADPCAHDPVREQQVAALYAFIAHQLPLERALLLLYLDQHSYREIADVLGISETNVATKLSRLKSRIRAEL
# T11: ECF25_1643
# T11 chain: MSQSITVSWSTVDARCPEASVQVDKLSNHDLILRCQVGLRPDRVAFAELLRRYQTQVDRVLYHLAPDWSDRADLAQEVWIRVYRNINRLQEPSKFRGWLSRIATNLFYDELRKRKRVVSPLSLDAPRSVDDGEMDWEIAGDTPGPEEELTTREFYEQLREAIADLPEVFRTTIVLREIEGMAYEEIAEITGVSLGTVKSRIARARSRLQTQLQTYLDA
# T12: ECF28_1088
# T12 chain: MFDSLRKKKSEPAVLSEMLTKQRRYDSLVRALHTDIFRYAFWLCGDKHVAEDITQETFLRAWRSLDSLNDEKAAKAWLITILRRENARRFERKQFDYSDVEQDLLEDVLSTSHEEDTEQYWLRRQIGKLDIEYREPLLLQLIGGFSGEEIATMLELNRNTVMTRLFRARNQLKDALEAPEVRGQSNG
# T13: ECF34_1384
# T13 chain: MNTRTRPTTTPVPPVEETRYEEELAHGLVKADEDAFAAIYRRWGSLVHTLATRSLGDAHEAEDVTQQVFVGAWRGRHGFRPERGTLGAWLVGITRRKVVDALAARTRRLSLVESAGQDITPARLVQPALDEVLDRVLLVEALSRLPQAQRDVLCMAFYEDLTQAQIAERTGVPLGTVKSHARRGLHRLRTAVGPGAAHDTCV
# T14: ECF35_3582
# T14 chain: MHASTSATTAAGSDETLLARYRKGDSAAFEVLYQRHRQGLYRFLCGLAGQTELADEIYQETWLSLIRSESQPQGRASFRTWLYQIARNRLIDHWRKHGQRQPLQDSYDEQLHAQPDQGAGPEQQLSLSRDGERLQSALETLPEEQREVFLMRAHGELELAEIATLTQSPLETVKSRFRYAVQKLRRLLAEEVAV
# B1: AS15_524 (protein)
# chain: MNFGVEDMIEHVPMEDKRKGAAALDEARLRQQAIGVKLRQMFDEVVNEPVPDEFLAILRKAERPAGGE
# B2: AS22_1147 (protein)
# chain: MELDDIAVAWRSLEQRLDQHAALAGQVLGDLRSHAARAHLRPLWLSQSAQLLCAIALSGLVAHSWLAFPEQAAAIVGGVLLQIWCVALAASAARQLWLLSQLDFARPLLQTQRALAQLRRWRTRVAPWLGVAFWVLWVAVADAAWRALTGRSLPYAWLLCNLLVGVLGGIGTWLGYRRLQRSGHPWLERLDTVHAGRSVARTETLLEQIARFQRE
# B3: AS16_973 (protein)
# chain: MKTDDLIALLAAGEGPVPRHAVGRRMAVAALGGLTAALLLTITLYGVRSDITEVAQTPLFWGKVAFPTSLALIGLWLTSRLARPGGKGAAGWKMLGLPLLLVWCGAAVSIAGAPVDARADLLFGRTWRTCALNIALLSVPAFVTVFWALKGLAPTRLRLAGAAGGLLAGSSATVAYCLHCPEMGVPFWGVWYVLGMLVPTVLGAWWGPRMLRW
# B4: AS20_992 (protein)
# chain: MTPERFVHLADAYGADLQRWPSAERAAAQALLDCGDAQAVAALRQAHWLDSQLDRYQVPAPSPALAQRIIAAAQQPGAPFWSRYAGWLASLGWVGVGLTGVAAGMLAVALSLPLSTSAEALPSVFDQSDAEFVLSINAEEAEQ
# B5: AS22_4450 (protein)
# chain: MELDDMKHAWQTLEQRLDQQAAQTGQLLGVVHEETVRSSLRPLWVAQTAQLLCALALAIVSARSWIPHTDQPVAVIGGVLLQAWCMALAISAMVQLQLLTQFNVAGPLLRTQHALARLRRWRTRVAPWLGVAFWVLWIAVADALWRALTGQTLPTDWLVLNLLVGVAGGIGTWLGFRRLQRAQHPWLERIDRAHAGTGVIRAERMLEEIARFQRD
# B6: AS02_915 (protein)
# chain: MEKTGQEWVSASVDGETDRQTLAELAADTDSHAKWQRYHLMGDAMRDELPQAMPLDLSARIAAALEDEPTILAPKVEREATQAPSRAVVVPFMRQLGQYGIAAAVALMAVVGVQNYQSTQDDAPLPVLNTRPLVGTATPVSLQTGPVANQNQGNANDQLLEQRRRINAYLQDHMLQQRLNTGAVVDDNSEVTPIPVNR
# B7: AS16_3622 (protein)
# chain: MMKTDELISLLATAEGPVDRHALARRLGLALLAGLLGALLLTVALYGVRSDLAEVARTPLFWAKVALPTSLALLGLWLTQRLARPGVRGGALWGLLGVPLLLVWLGAAISLFGAPPEARADLIFGRTWRTCALNITLLSTPVFIAVFWALRGLAPTRLRQAGAAGGLLAGSTATLVYCLHCPEMGVPFWGLWYLLGMLVPTLLGAVLGPRLLRW
# Biological target: T1, ECF01_3473
row,Binder,fold repression
1,B1,9.89
2,B2,3.03
3,B3,0.602
4,B4,2.3
5,B5,1.32
6,B6,5.57
7,B7,2.63

# Biological target: T2, ECF04_1609
row,Binder,fold repression
1,B1,6.89
2,B2,3.52
3,B3,0.632
4,B4,1.95
5,B5,1.43
6,B6,3.74
7,B7,1.95

# Biological target: T3, ECF11_3726
row,Binder,fold repression
1,B1,8.06
2,B2,3.72
3,B3,1.29
4,B4,1.91
5,B5,1.93
6,B6,7.44
7,B7,6.84

# Biological target: T4, ECF12_807
row,Binder,fold repression
1,B1,5.51
2,B2,3.45
3,B3,0.905
4,B4,1.4
5,B5,1.67
6,B6,9.79
7,B7,7.12

# Biological target: T5, ECF15_436
row,Binder,fold repression
1,B1,16.7
2,B2,3.01
3,B3,0.884
4,B4,1.32
5,B5,1.41
6,B6,3.47
7,B7,4.75

# Biological target: T6, ECF15_524
row,Binder,fold repression
1,B1,31.4
2,B2,2.65
3,B3,0.668
4,B4,1.58
5,B5,1.53
6,B6,2.55
7,B7,3.36

# Biological target: T7, ECF16_3622
row,Binder,fold repression
1,B1,7.87
2,B2,2.91
3,B3,57
4,B4,1.71
5,B5,1.79
6,B6,4.3
7,B7,254

# Biological target: T8, ECF16_973
row,Binder,fold repression
1,B1,4.98
2,B2,2.57
3,B3,58.6
4,B4,1.7
5,B5,1.71
6,B6,3.34
7,B7,131

# Biological target: T9, ECF17_1691
row,Binder,fold repression
1,B1,5.16
2,B2,1.74
3,B3,0.852
4,B4,2.05
5,B5,1.52
6,B6,2.73
7,B7,2.43

# Biological target: T10, ECF22_1147
row,Binder,fold repression
1,B1,6.96
2,B2,6.19
3,B3,1.2
4,B4,2.47
5,B5,5.73
6,B6,4.49
7,B7,8.27

# Biological target: T11, ECF25_1643
row,Binder,fold repression
1,B1,2.89 and 3.07
2,B2,2.46 and 1.99
3,B3,0.594 and 0.667
4,B4,1.63 and 1.33
5,B5,1.63 and 1.34
6,B6,3.46 and 2.7
7,B7,1.55 and 1.67

# Biological target: ECF27_1331
row,Binder,fold repression
1,B1,11.5
2,B2,3.07
3,B3,0.929
4,B4,2.11
5,B5,1.37
6,B6,4.27
7,B7,3.55

# Biological target: T12, ECF28_1088
row,Binder,fold repression
1,B1,3.64
2,B2,2.19
3,B3,1.04
4,B4,2.27
5,B5,1.18
6,B6,2.38
7,B7,2.18

# Biological target: T13, ECF34_1384
row,Binder,fold repression
1,B1,5.15
2,B2,2.09
3,B3,0.757
4,B4,1.64
5,B5,1.66
6,B6,3.28
7,B7,2.8

# Biological target: T14, ECF35_3582
row,Binder,fold repression
1,B1,2.42
2,B2,1.94
3,B3,0.722
4,B4,1.6
5,B5,1.35
6,B6,2.65
7,B7,1.67
